To fix the notation:
B1: anti-PRL-3 nanobody 4 (VHH)
VHH: QVQLQESGGGLVQTGGSLRLSCAASQSTYNFDVMGWYRLAPGKQREFLTSITNGGNIYYADSVKGRFTIARDDSKTTMYLEMNSLKPEDTAVYTCYGQTHKPRVTTSWGQGTQVTVSS
notes: also called NB 4; source: E. coli One-Shot BL21 Star DE3 (pMES4), purified (Ni-NTA, Superdex 200); not shown: 6XHis, C-terminal, kept
B2: anti-PRL-3 nanobody 16 (VHH)
VHH: B1 VHH with Y29F, I69T
notes: also called NB 16; source: E. coli One-Shot BL21 Star DE3 (pMES4), purified (Ni-NTA, Superdex 200); not shown: 6XHis, C-terminal, kept
B3: anti-PRL-3 nanobody 91 (VHH)
VHH: B1 VHH with Y29F
notes: 91 is its standard; also called NB 91; nanobody 91-His; source: E. coli One-Shot BL21 Star DE3 (pMES4), purified (Ni-NTA, Superdex 200); not shown: 6XHis, C-terminal, kept
B4: anti-PRL-3 nanobody 19 (VHH)
VHH: QVQLQESGGGLVQAGGSLGLSCAASRSIFNFKVMGWYRQAPGKQRELVASITNSDNTYYADSVKGRFTISREDAKTTMYLEMNSLKPEDTAVYRCYGQNWGLRATTYWGQGTQVTVSS
notes: also called NB 19; source: E. coli One-Shot BL21 Star DE3 (pMES4), purified (Ni-NTA, Superdex 200); not shown: 6XHis, C-terminal, kept
B5: anti-PRL-3 nanobody 84 (VHH)
VHH: B4 VHH with A91T
notes: also called NB 84; source: E. coli One-Shot BL21 Star DE3 (pMES4), purified (Ni-NTA, Superdex 200); not shown: 6XHis, C-terminal, kept
B6: anti-PRL-3 nanobody 26 (VHH)
VHH: QVQLQESGGGLVQPGGSLKLSCVVTGLHYYTEGWFRQAPGKEREGVSCISSSDGRTDYIDSVKGRFTISEDNDNKTVYLQMNTLKPDDTGVYYCVAERGPRGSTWWETYDYWGQGTHVTVSS
notes: also called NB 26; nanobody 26-His; source: E. coli One-Shot BL21 Star DE3 (pMES4), purified (Ni-NTA, Superdex 200); not shown: 6XHis, C-terminal, kept

Changes are numbered by the printed parent chain.

For the assay, the target named is T1, recombinant PRL-3 (Phosphatase of Regenerating Liver-3) (Homo sapiens, UniProt O75365).
T1 construct: Phosphatase of Regenerating Liver-3 (PRL-3), human cDNA amplified with gene-specific primers and cloned into pSKB3 (NheI/XhoI); also called apo PRL-3; PTP4A family member; source: E. coli One-Shot BL21 Star DE3, purified (Ni-NTA, TEV cleavage, Superdex 200); not shown: 6XHis, N-terminal, cleaved
T1 sequence (O75365 1-169): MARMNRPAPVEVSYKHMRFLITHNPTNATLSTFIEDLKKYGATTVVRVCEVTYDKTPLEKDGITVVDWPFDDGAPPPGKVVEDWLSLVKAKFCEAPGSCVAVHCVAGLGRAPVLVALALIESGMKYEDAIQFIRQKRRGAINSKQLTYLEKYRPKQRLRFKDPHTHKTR
Nature of the assay: BLI; BLItz; nanobody (626.57 nM) loaded on Anti-Penta-HIS (HIS1K) biosensors; PRL-3 as analyte at six concentrations; association 5 min, dissociation 2 min; 1X kinetics buffer; global fit. To be noted: both partners purified. (In general: BLI is a label-free optical method that tracks binding on a fibre tip over time.)
The Kd is the concentration at which binding is half-saturated. As usually defined, the koff is the first-order rate constant of dissociation. As usually defined, the kon is a measure of how fast the partners come together. As to B1, the Kd came to 202 nM, the koff was determined as 0.000565 s⁻¹ and the kon amounted to 2750 M⁻¹ s⁻¹.
On to B2, for which the Kd came to 299 nM, the koff was determined as 0.000624 s⁻¹ and the kon amounted to 2090 M⁻¹ s⁻¹.
The corresponding values for B3 are 203 nM, 0.00139 s⁻¹ and 6880 M⁻¹ s⁻¹.
Turning to B4, the Kd worked out at 98.4 nM, the koff stood at 0.000386 s⁻¹ and the kon was 3920 M⁻¹ s⁻¹.
On to B5, for which the dissociation constant Kd stood at 101 nM, the koff came to 0.000332 s⁻¹ and the kon was 3280 M⁻¹ s⁻¹.
With B6, the dissociation constant Kd came to 28.9 nM, the koff is 0.000127 s⁻¹ and the kon is 4380 M⁻¹ s⁻¹.

These data come from publication PMC10204944, “Development and characterization of nanobodies that specifically target the oncogenic Phosphatase of Regenerating Liver-3 (PRL-3) and impact its interaction with a known binding partner, CNNM3” (PLOS ONE, 2023).
